This note sets out measurements from patent US20090117640.

Sequence of hGH mutant Q40N, P01241 (P01241 27-217 Q66N): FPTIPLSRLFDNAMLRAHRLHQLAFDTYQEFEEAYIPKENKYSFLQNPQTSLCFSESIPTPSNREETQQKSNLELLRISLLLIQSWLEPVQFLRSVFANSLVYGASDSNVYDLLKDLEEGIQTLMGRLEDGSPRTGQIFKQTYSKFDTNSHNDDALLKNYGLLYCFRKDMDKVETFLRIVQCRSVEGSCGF
Sequence of hGH mutant Q141N, P01241 (P01241 27-217 Q167N): as the sequence (P01241 27-217 Q66N) above, with N40Q, Q141N counted along it

B1: TGase from S. mobaraense (wild type) (protein)
chain: DSDDRVTPPAEPLDRMPDPYRPSYGRAETVVNNYIRKWQQVYSHRDGRKQQMTEEQREWLSYGCVGVTWVNSGQYPTNRLAFASFDEDRFKNELKNGRPRSGETRAEFEGRVAKESFDEEKGFQRAREVASVMNRALENAHDESAYLDNLKKELANGNDALRNEDARSPFYSALRNTPSFKERNGGNHDPSRMKAVIYSKHFWSGQDRSSSADKRKYGDPDAFRPAPGTGLVDMSRDRNIPRSPTSPGEGFVNFDYGWFGAQTEADADKTVWTHGNHYHAPNGSLGAMHVYESKFRNWSEGYSDFDRGAYVITFIPKSWNTAPDKVKQGWP
Regarding B1, in the data set with hGH mutant Q40N, P01241, the “HPLC peak area of product-Q141” value is given as “The first peak (26.9 min, area 1283) is product-Q141”; the Q40N (remaining substrate, normalized to 100) (normalized peak area (sum 100)) came out at 29; the product-Q141 (normalized to 100) (normalized peak area (sum 100)) was determined as 71. Besides, in the data set with hGH mutant Q141N, P01241, the “HPLC peak area of product-Q40” value is given as “The first peak (19.5 min, area 296) is product-Q40”; the Q141N (remaining substrate, normalized to 100) (normalized peak area (sum 100)) is 81; the product-Q40 (normalized to 100) (normalized peak area (sum 100)) is 19.

B2: TGase from Streptoverticillium ladakanum (protein)
chain: DSDERVTPPAEPLDRMPDPYRPSYGRAETIVNNYIRKWQQVYSHRDGRKQQMTEEQREWLSYGCVGVTWVNSGQYPTNRLAFAFFDEDKYKNELKNGRPRSGETRAEFEGRVAKDSFDEAKGFQRARDVASVMNKALENAHDEGAYLDNLKKELANGNDALRNEDARSPFYSALRNTPSFKDRNGGNHDPSKMKAVIYSKHFWSGQDRSGSSDKRKYGDPEAFRPDRGTGLVDMSRDRNIPRSPTSPGESFVNFDYGWFGAQTEADADKTVWTHGNHYHAPNGSLGAMHVYESKFRNWSDGYSDFDRGAYVVTFVPKSWNTAPDKVKQGWP
Take B2: in the data set with hGH mutant Q40N, P01241, the “HPLC peak area of product-Q141” value is reported as “The first peak (26.5 min, area 1238) is product-Q141”; the Q40N (remaining substrate, normalized to 100) (normalized peak area (sum 100)) is 23; the product-Q141 (normalized to 100) (normalized peak area (sum 100)) amounted to 77. Besides, in the data set with hGH mutant Q141N, P01241, the “HPLC peak area of product-Q40” value is reported as “The first peak (19.2 min, area 127) is product-Q40”; the Q141N (remaining substrate, normalized to 100) (normalized peak area (sum 100)) was 90; the product-Q40 (normalized to 100) (normalized peak area (sum 100)) is 10.
